Starred links: 1 amine or outer side, 2 acyl side, 3 side chain; linkers in the order of their positions; H or OH if unused. Positions of bridges follow the written chain, without caps; N, C: chain ends. Non-standard residues stand in square brackets, D forms with d. No end group written: not given here. X1 = 3‑(7-(3-acetamidophenyl)-1H-indol-3-yl)‑2‑aminopropanoic acid, CC(=O)Nc1cccc(-c2cccc3c(CC(N[*:1])C(=O)[*:2])c[nH]c23)c1; X10 = 2‑amino‑3‑(4-(2-guanidinoethoxy)phenyl)propanoic acid, N=C(N)NCCOc1ccc(CC(N[*:1])C(=O)[*:2])cc1; X7 = 2‑amino‑3‑(5-methylpyridin-3-yl)propanoic acid, Cc1cncc(CC(N[*:1])C(=O)[*:2])c1; 2Nal(6-OH) = N[C@@H](Cc1ccc2cc(O)ccc2c1)C(=O)O; Trp(7-Me) = Cc1cccc2c(C[C@H](N)C(=O)O)c[nH]c12; d(hLys(Me3)) = C[N+](C)(C)CCCCC[C@@H](N)C(=O)O; AEF = NCCOc1ccc(C[C@H](N)C(=O)O)cc1; 3Pal = N[C@@H](Cc1cccnc1)C(=O)O; Lipidated = not defined here; NMeK = CN[C@@H](CCCCN)C(=O)O; Pen = CC(C)(S)[C@H](N)C(=O)O; αMeC = C[C@](N)(CS)C(=O)O; lipid = not defined here; Thp = NC1(C(=O)O)CCOCC1; Abu = CC[C@H](N)C(=O)O; PEG = not defined here; Ava = NCCCCC(=O)O; Sar = CNCC(=O)O
T1: interleukin-23 receptor (IL-23R), Q5VWK5
T1 chain: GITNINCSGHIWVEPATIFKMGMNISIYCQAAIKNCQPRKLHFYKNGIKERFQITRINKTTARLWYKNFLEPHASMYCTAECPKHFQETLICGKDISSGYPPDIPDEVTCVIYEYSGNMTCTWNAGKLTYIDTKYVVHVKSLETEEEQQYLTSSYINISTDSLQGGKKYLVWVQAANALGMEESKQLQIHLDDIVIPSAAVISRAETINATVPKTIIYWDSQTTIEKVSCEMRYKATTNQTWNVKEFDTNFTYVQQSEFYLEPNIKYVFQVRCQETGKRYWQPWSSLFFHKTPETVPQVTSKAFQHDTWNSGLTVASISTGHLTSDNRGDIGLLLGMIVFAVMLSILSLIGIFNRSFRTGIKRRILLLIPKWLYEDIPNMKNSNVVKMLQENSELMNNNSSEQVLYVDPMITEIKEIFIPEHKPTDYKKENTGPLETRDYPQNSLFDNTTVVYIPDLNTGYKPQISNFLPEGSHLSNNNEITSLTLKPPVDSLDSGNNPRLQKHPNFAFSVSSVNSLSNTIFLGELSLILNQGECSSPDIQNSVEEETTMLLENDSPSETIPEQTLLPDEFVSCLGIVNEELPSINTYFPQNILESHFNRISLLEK


Target: T1, interleukin-23 receptor (IL-23R), Q5VWK5
Experiment: cell-based or functional assay

Binder | IL23R Reporter Assay IC50 | PBMC pSTAT3 IC50
[Pen]NT[X1]K(Ac)[Pen][5‑(4-(2-amino-2-carboxyethyl)phenoxy)‑N,N,N‑trimethylpentan‑1‑aminium][2‑amino‑3‑(6-hydroxynaphthalen-2-yl)propanoic acid][Thp]EN[X7][Sar] (ends and bridges not checked) [SEQ ID NO: 22] | < 10 nM | < 0.01 nM
[Ava][Abu]NTWQC[2‑amino‑3‑(4-(2-aminoethoxy)phenyl)propanoic acid][2‑amino‑3‑(6-hydroxynaphthalen-2-yl)propanoic acid][Thp]EN[3Pal][Sar] (ends and bridges not checked) [SEQ ID NO: 172] | < 10 nM | < 0.01 nM
[Ava][Abu]NT[Trp(7-Me)]K(Ac)C[2‑amino‑3‑(4-(2-aminoethoxy)phenyl)propanoic acid][2‑amino‑3‑(6-hydroxynaphthalen-2-yl)propanoic acid][Thp]EN[3Pal][Sar] (ends and bridges not checked) [SEQ ID NO: 171] | < 10 nM | < 0.01 nM
R[Pen]ET[X1]K(Ac)[Pen][2‑amino‑3‑(4-(2-aminoethoxy)phenyl)propanoic acid][2‑amino‑3‑(6-hydroxynaphthalen-2-yl)propanoic acid][Thp]EN[3Pal][Sar] (disulfide 2-7 (inferred); ends not checked) [SEQ ID NO: 158] | < 10 nM | < 0.01 nM
[Pen]NT[Trp(7-Me)]K(Ac)[Pen][X10][2Nal(6-OH)][Thp]EN[3Pal][Sar] (ends and bridges not checked) [SEQ ID NO: 24] | < 10 nM | < 0.1 nM
[(R)‑3‑carboxy‑2‑(4-(((R)-5-carboxy-5-hydrazineylpentyl)amino)-4-oxobutanamido)‑N,N,N‑trimethylpropan‑1‑aminium][Pen]NT[Trp(7-Me)]K(Ac)[Pen][2‑amino‑3‑(4-(2-aminoethoxy)phenyl)propanoic acid][2‑amino‑3‑(6-hydroxynaphthalen-2-yl)propanoic acid][Thp]EN[3Pal][NMeK](lipid) (disulfide 2-7 (inferred); ends not checked; also: X14: lipidated N-methyl-lysine, lipid and methyl place not given here) [SEQ ID NO: 167] | > 100 nM | < 1 nM
[(R)‑3‑carboxy‑2‑(4-(((R)-5-carboxy-5-hydrazineylpentyl)amino)-4-oxobutanamido)‑N,N,N‑trimethylpropan‑1‑aminium][Pen]NT[Trp(7-Me)]K(Ac)[Pen][2‑amino‑3‑(4-(2-aminoethoxy)phenyl)propanoic acid][2‑amino‑3‑(6-hydroxynaphthalen-2-yl)propanoic acid][Thp]EN[3Pal][NMeK](lipid) (disulfide 2-7 (inferred); not fully specified; ends not checked) [SEQ ID NO: 168] | > 100 nM | < 1 nM
R[Abu]NTWK(Ac)[αMeC][AEF][2Nal(6-OH)][Thp]K(Ac)N[3Pal][Sar] (ends and bridges not checked) [SEQ ID NO: 28] | < 10 nM | –

Next, values leading:

IL23R Reporter Assay IC50 | PBMC pSTAT3 IC50 | Binder
> 100 nM | > 1 nM | [Pen]NT[Trp(7-Me)]K(lipid)[Pen][2‑amino‑3‑(4-(2-aminoethoxy)phenyl)propanoic acid][2‑amino‑3‑(6-hydroxynaphthalen-2-yl)propanoic acid][Thp]K(Ac)N[3Pal][Sar] (disulfide 1-6 (inferred); ends not checked; also: K5 lipidated, lipid not given here) [SEQ ID NO: 178]
> 100 nM | > 1 nM | [Pen]NT[Trp(7-Me)]K(Ac)[Pen][2‑amino‑3‑(4-(2-aminoethoxy)phenyl)propanoic acid][2‑amino‑3‑(6-hydroxynaphthalen-2-yl)propanoic acid][Thp]K(lipid)N[3Pal][Sar] (disulfide 1-6 (inferred); ends not checked; also: K10 lipidated, lipid not given here) [SEQ ID NO: 177]
> 100 nM | < 1 nM | [Pen]NT[Trp(7-Me)]K(Lipidated)[Pen][2‑amino‑3‑(4-(2-aminoethoxy)phenyl)propanoic acid][2‑amino‑3‑(6-hydroxynaphthalen-2-yl)propanoic acid][Thp]K(Ac)N[3Pal][Sar] (disulfide 1-6 (inferred); ends not checked; also: K5 lipidated lysine, lipid not given here) [SEQ ID NO: 188]
> 100 nM | < 1 nM | [Pen]NT[Trp(7-Me)]K(Lipidated)[Pen][2‑amino‑3‑(4-(2-aminoethoxy)phenyl)propanoic acid][2‑amino‑3‑(6-hydroxynaphthalen-2-yl)propanoic acid][Thp]K(PEG)N[3Pal][Sar] (disulfide 1-6 (inferred); ends not checked; also: lipid structure not given here, PEG size not given here) [SEQ ID NO: 200]
> 100 nM | < 1 nM | [d(hLys(Me3))][Pen]NT[Trp(7-Me)]K(Lipidated)[Pen][2‑amino‑3‑(4-(2-aminoethoxy)phenyl)propanoic acid][2‑amino‑3‑(6-hydroxynaphthalen-2-yl)propanoic acid][Thp]K(Ac)N[3Pal][Sar] (disulfide 2-7 (inferred); ends not checked; also: K6 lipidated lysine, lipid not given here) [SEQ ID NO: 187]
> 100 nM | < 1 nM | [Pen]NT[Trp(7-Me)]K(Lipidated)[Pen][2‑amino‑3‑(4-(2-aminoethoxy)phenyl)propanoic acid][2‑amino‑3‑(6-hydroxynaphthalen-2-yl)propanoic acid][Thp]K(Ac)N[3Pal][Sar] (disulfide 1-6 (inferred); ends not checked; also: K5 lipidated lysine, lipid not given here) [SEQ ID NO: 189]
> 100 nM | < 1 nM | [Pen]NT[Trp(7-Me)]K(lipid)[Pen][5‑(4-(2-amino-2-carboxyethyl)phenoxy)‑N,N,N‑trimethylpentan‑1‑aminium][2‑amino‑3‑(6-hydroxynaphthalen-2-yl)propanoic acid][Thp]K(Ac)N[3Pal][Sar] (disulfide 1-6 (inferred); ends not checked; also: K5 lipidated lysine, lipid not given here) [SEQ ID NO: 183]
